The text below walks through data of patent US20240190937A1, “HUMAN INSULIN C-ALPHA-PEPTIDES AND METHODS OF USE” (The United States of America, as represented by the …, priority 2021, published 2024).

One test has as its target T1, IAPP (Homo sapiens, UniProt P10997).
T1 construct: IAPP (37 AA) (catalog number LT110006) (amidated C-terminal and disulfide bridge between Cys2 and Cys7) was from LifeTein; purchased LifeTein (Hillsborough, NJ) LT110006
T1 sequence (P10997 34-70 limits assumed): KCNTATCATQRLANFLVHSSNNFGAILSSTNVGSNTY
The test is described as follows: IAPP aggregation assay (Thioflavin T fluorescence). The format is biochemical. To be noted: 50 mmol/L IAPP plus 50 mmol/L peptide; 37° C.; range of 90-130 min; three replicates. An excerpt: Thioflavin T (ThT) was from MilliporeSigma (catalog number T3516; Rockville, MD). IAPP (37 AA) (catalog number LT110006) (amidated C-terminal and disulfide bridge between Cys2 and Cys7) was from LifeTein (Hillsborough, NJ), and C-peptide (catalog number AS-61127) was from AnaSpec (Fremont, CA). Cα-peptide was custom made (Genemed Synthesis, Inc., San Antonio, TX). Black 96-well microplates (chimney well) were from Greiner Bio-One (Frickenhausen, Germany). Soluble and monomeric IAPP was made according to published protocols (Stine et al., Methods Mol. Biol. 670:13-32, 2011; Tu et al., Biochemistry 54:666-676, 2015), and the AnaSpec Manual of SensoLyte Thioflavin T Aggregation Kit (catalog number AS-72214) was used for the IAPP aggregation assay, with final concentration of 1% DMSO and […] ThT in component A buffer. The buffer was used as blank and IAPP without inhibitors, and the final concentration of IAPP and C- and Cα-peptides was […] each in the inhibition assays. Amyloid kinetics were measured by increasing ThT fluorescent amyloid binding intensity (1ex 440 nm; 1em 485 nm; height 3 mm; flashes 12) for 36 cycles, 5 min per cycle, at 37° C. with 15 s of shaking (100 rpm) between the reads in the EnSpire Multimode Plate Reader (PerkinElmer, Inc., Waltham, MA).

The target of the next test is β-Amyloid (1-42) (Homo sapiens, UniProt P05067). The test is described as follows: β-Amyloid (1-42) fibrillation assay (ThT binding to amyloid). The format is biochemical. To be noted: 50 μM β-Amyloid plus 50 μM peptide; time range of 60-240 min; three replicates. Here is the method: FIGS. 21A-21C show inhibition of β-Amyloid (1-42) fibrillation by C- (C-pep) and Cα-peptides (Cα-pep). […] FIG. 21B is a box-whisker plot on C- and Cα-pep inhibition of β-Amyloid fibrillation in time range of 60-240 min. […] Fluorescence intensity (F.I.) represents ThT binding to amyloid. AUC represents area under curve calculated by Trapezoid rule. Aβ(1-42) represents 50 μM β-Amyloid plus buffer, C-pep represents 50 μM β-Amyloid plus 50 μM C-pep, and Cα-pep represents 50 μM β-Amyloid plus 50 μM Cα-pep.
β-Amyloid (1-42), sequence (P05067 672-713 limits assumed): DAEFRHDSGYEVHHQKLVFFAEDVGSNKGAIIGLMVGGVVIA
Thioflavin T (ThT) was from MilliporeSigma (catalog number T3516; Rockville, MD). IAPP (37 AA) (catalog number LT110006) (amidated C-terminal and disulfide bridge between Cys2 and Cys7) was from LifeTein (Hillsborough, NJ), and C-peptide (catalog number AS-61127) was from AnaSpec (Fremont, CA). Cα-peptide was custom made (Genemed Synthesis, Inc., San Antonio, TX). Black 96-well microplates (chimney well) were from Greiner Bio-One (Frickenhausen, Germany). […] Amyloid kinetics were measured by increasing ThT fluorescent amyloid binding intensity (1ex 440 nm; 1em 485 nm; height 3 mm; flashes 12) for 36 cycles, 5 min per cycle, at 37° C. with 15 s of shaking (100 rpm) between the reads in the EnSpire Multimode Plate Reader (PerkinElmer, Inc., Waltham, MA).

For “C-peptide: classical 31-AA human insulin C-peptide, AnaSpec catalog number AS-61127 (EAEDLQVGQVELGGGPGAGSLQPLALEGSLQ)”, in the test with IAPP, the “inhibition of IAPP fibrillation (ThT fluorescence intensity, AUC)” value is on record as “inhibition of IAPP fibrillation”. In the test with β-Amyloid (1-42), the “inhibition of β-Amyloid fibrillation (ThT fluorescence intensity, AUC)” value is given as “not”.

Consider “EAEDLQGSLQPLALEGSLQ (C-alpha peptide; listed as Homo sapiens) [Cα-peptide, human 19-AA insulin C-peptide variant encoded by INS3B isoform; custom made by Genemed Synthesis]”, for which, in the test with IAPP, the “inhibition of IAPP fibrillation (ThT fluorescence intensity, AUC)” value was “inhibited IAPP fibrillation more efficiently than C-peptide”. In the test with β-Amyloid (1-42), the “inhibition of β-Amyloid fibrillation (ThT fluorescence intensity, AUC)” value is listed as “inhibits”.
